From a protein production outcome set (Wang et al. 2014)

Assay: label from the status in PepcDB records
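Further: failed if final PepcDB status was selected cloned or expressed and not failed if soluble or beyond.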

Row | Sequence | protein production
1 | MIIEYNKLGTILYSRISHKQLYNIFHYSYHEVRLLVYNKYLPIPKQFNDEFWTVEKVEHIRYLSLTGKPYKIFNEDMNSLRVLDKVRFKLDKATSISLTPKANLELEFSGIYMKSPLYLGDMSYGALSGNPNIAIATAADLTETLAGTGEGGLHPEVAKHKRIFVQWASARFGVDIRVLTAGMGVVIKIGQGAKPGIGGHLPGNKVTEPISLTRRIPIGIDAISPAPHHDIYSIEDLGQRIEALKEATGRPVFVKVAATNYIPYIVSGIARMGADGVIIDGHGAGTGATPVVIRDNVGIPIELAIASADKILRREGLRDKFTIIAAGRVSSATDAAKLFALGADIVSVGTGALIAMGCVMVHKCHVGSCPTGLTAKIDGTRVVDTEFGVKMLVNFINGFSLELANILDNLGLNNIRELRGRRDLLYGHGLSKDTLETLGIDGTEDEANPKLGELWNRRIIAYMHELMNKGNPVITSMGSTAPPDVEKPARIIDWLRSDGAQVTRPSIDPYREDVDTSFYLKGGEIYLSLPIIFDITEAPLEYKEAFSWSALALSSAVFDYETIDKYAEVFISSDGRGIARWSRNEIYENSYLLIPADENVIDEVIGMGVQGFIIDEDSGNSDLELVVSALDTKLKEVGVRNHYDILAKSSRLRHSADAFKLILLGADSVIMPYFILEKAIGEGNKGNLKEKAFSLITGMKKEIALLAGAAGVYSVQSTLTGNRELLRSINLNHSIRKALRIKPAGSL | failed
2 | MLEHHFRSLKAIDRVRAQWLGPQIERYVQSLDELHTSNATVRQHIRALGHFNDFVIARGVTKLEALPDHVDAFVEYWHAGHAGWCKNNQDRAAVTAQSRVPVERMLCLALPDYTRPNNRPAMPFANTVPGFLPFLNDEKGLRQESQQRYLYTLRPFEAYLNRGGIALSGLEPAHISRFLEERAKTLHKAGMRDTAGALRIFLRYLHREGIVATDLVRSVPRGRIYRQASIPRAIGWQDVERLLTSIDRRSILGKRDYAILTLLASYGLRAREIAALCLDDFDWTHAQISIPMRKGGHSTRYPLSATVGDAVISYLQARRSDVPHRQVFLTARSPYIPMRHWTVSAMVGIRMRDIGIQVTRAGSHTLRHACVQHLVEADMPFKVIGDYVGHSHPSSTLVYGKVAVHKLRQIVLFQGEDVL | failed
3 | MIEGKTLVVNPFIGGSAKNITDEQYISILKKIKEKMPDLNIIITSYTTDEERTEKLCKDIGKDKIFAFSNGASILNTASIIDRADVYFGASTGPTHIAGALGKKIVAIYPHKKTQSPTRWGVLGNSNVRYIIPDENNPNEDYKLEHHHHHH | failed
4 | MEDLTASVTNRTVSLPLSCVTTDFGLGVIYASKNQESKTTREKPMLVTLNSSLEHTYQKDFKSLREILSRKVAWQTEAVNAISQIICGCKTDSTRRNQASGIWLALLGPDKVGKKKVAMTLSEVFFGGKVNYICVDFGAEHCSLDDKFRGKTVVDYVTGELSRKPHSVVLLENVEKAEFPDQMRLSEAVSTGKIRDLHGRVISMKNVIVVVTSGIAKDNATDHVIKPVKFPEEQVLSARSWKLQIKLGDATKFGVNKRKYELETAQRAVKVQRSYLDLNLPVNETEFSPDHEAEDRDAWFDEFIEKVDGKVTFKPVDFDELAKNIQEKIGSHFERCFGSETHLELDKEVILQILAASWSSLSSGEEEGRTIVDQWMQTVLARSFAEAKQKYGSNPMLGVKLVASSSGLASGVELPAKVDVIW | failed
5 | MRKNKLSFKEKAGAEQEECLCFCEGEASREAMFQAPIELPEGFVVDPAEAVANVTWNADSLSCVSDRCLIQTGPEPDEVGVQFAVRLQGTVTLLVSVSPVRNQYGQGDGAVSVIHNAEIDQVVYYSDESDDCPDISDITIENLVVVPPFYGSPLSVTGTIVLVPEPEPVYAFTANPNDQSVSVIDTNTDTVVTTIALPYNPAGIEITPDKSAVFVLHPNNNVISVIDYDTLTVTATILLDQPPRLIRFIPNHEFAYVFTGTAVYVIGIDTLTVDRSIPVEGYDVAIDPNGLFAYVLNFGIVQKVDLTTGEVTGTIERELIVSTIETNWPERYAYVLEQEFFFNYLTVIDLNTFTISSTQELEYEGEYRMFTSGAEVYLYDGFTGNLYSVSPNGAGVIGNVPQSATDYAFTPNGDFLYATRFIEQSIIVYNTDDYSEETVISLGVSPGAITILEHHHHHH | not failed
6 | MVLEHCRDAIESHGVETDIISLRGMKIESCRACLSCAKKHRCRIDDGLNDIIDRIRDSEGFIVATPVYFGTARGDLMAALQRIGMVSRASDGFLSWKVGGPIAVARRGGHTATIQELLMFYFINDMIVPGSTYWNMVFGWAPGEVEDDSEGIETIRRFGENVAELIKRINGGSLEHHHHHH | failed
7 | MSDRGASAPSLPDDWPAHPDPILALNRMGSFDWDLDAGLFHMDAQAHEVFDLRPEEYDGRPESLALRVPTAESRRMDTIVARAMKDGSENYGTYFRLRRRDGTLRWTHTQGYIRRDETGRPRRIIGIVRDATQ | failed
8 | MKGHIRERSPGHWAIVLDVGEVDPKTGKKKRKWHSFTGTKREAQKECSRLITVLDQGLYVEPTKQTVAEFLNEWLAFVKPSVAPKTHERYTEICRKGLSPLIGNVILSKLKTDRIDAAFTTALTAPRVDHRTKKDQREPLPPLAPRTVHHYRRVLVKALGQAVTWERLSRNPATATTPPKVERQKMLAYDVGQTATLLETLRPTRMFVPVLLAVTCGLRRGEILALRWRHLELGDNRRQMSIEESAEQTADGVRYKEPKSGRARTVALSASTVAELKAHRARQAEEQLRLGIRPDADSFVVAQVDGQPLQPRSLTHEWVRVLGKTSLPRIRFHDLRHTHATQMLSAGVHPKIASERLGHSNIGITLDLYSHVMPGMQADAAEQVDVALQAAISSERKGK | failed
9 | SASFVTSKRDFRARAHSNPLNDAEFLVPEDPLRFDWSPFIPDVGSHPIDYVDLGCGYGGLLCELSIAFPNKYMLGMEIRDRVASYCVTKLEELRRLNSKGYRNIGFIRTNCMKFLPFYFPPSSVEKFFICFPDPHFKKKKHRQRLVSLRFLSEAAYCLRPGGMIYIVTDVEELFAWMTNLFAQHPLFLTMDKELVKQQDVLLPYLLNHTDEAQRMKRRGQDTPYWNVFQRKTVFC | failed
10 | MSLSGVSHVSLTVRDLDISCRWYTEILDWKELVRGRGDTTSFAHGVLPGGLSIVLREHDGGGTDLFDETRPGLDHLSFSVESMTDLDVLEERLAKAGAAFTPTQELPFGWILAFRDADNIALEAMLGREGHHHHHH | not failed
11 | MRFPELEELKNRRTLKWTRFPEDVLPLWVAESDFGTCPQLKEAMADAVEREVFGYPPDATGLNDALTGFYERRYGFGPNPESVFAIPDVVRGLKLAIEHFTKPGSAIIVPLPAYPPFIELPKVTGRQAIYIDAHEYDLKEIEKAFADGAGSLLFCNPHNPLGTVFSEEYIRELTDIAAKYDARIIVDEIHAPLVYEGTHVVAAGVSENAANTCITITATSKAWNTAGLKCAQIFFSNEADVKAWKNLSDITRDGVSILGLIAAETVYNEGEEFLDESIQILKDNRDFAAAELEKLGVKVYAPDSTYLMWLDFAGTKIEEAPSKILREEGKVMLNDGAAFGGFTTCARLNFACSRETLEEGLRRIASVL | failed
12 | MLKTYQKLLAMGIFLIVLCSGNAAFAATNQVGGLSNVGFFHDYLIEPFSALLKGVAGLFHGEYGLSIILVTIIVRIVVLPLFVNQFKKQRIFQEKMAVIKPQVDSIQVKLKKTKDPEKQKELQMEMMKLYQEHNINPLAMGCLPMLIQSPIMIGLYYAIRSTPEIASHSFLWFSLGQSDILMSLSAGIMYFVQAYIAQKLSAKYSAVPQNPAAQQSAKLMVFIFPVMMTIFSLNVPAALPLYWFTSGLFLTVQNIVLQMTHHKSKKTAALTESVK | failed
13 | MGTSSDPIQDGSDEQQKRSEIYTYEAPWHIYAMNWSVRRDKKYRLAITSLLEQYPNRVEIVQLDESNGEIRSDPNLSFEHPYPPTKTIFIPDKECQRPDLLATSSDFLRLWRIADDHSRVELKSCLNSNKNSEFCGPLTSFDWNEAEPRRIGTSSTDTTCTIWDIEREAVDTQLIAHDKEVFDIAWGGVGVFASVSADGSVRVFDLRDKEHSTIIYESSEPDTPLVRLGWNKQDPRYMATIIMDSAKVVVLDIRFPALPVVELQRHQASVNAIAWAPHSSCHICTAGDDSQALIWDISSMGQHVEGGLDPILAYTAGAEIEQLQWSSSQPDWVAIAFSTKLQILRV | failed
14 | REHNYPDTCFEHFVASSVAVYPVFELAAKSTGRIGQLLRSAVYESSAWQQGGNTHFGAFLLLIPLAMAAGEISREQGEQPGCGKTFFRIEAEEFENLASHAHAFVRETDCEDAVEFYRAFGHAGVRVNSVEEFDLEDPEATSDLRNQNITLYSLMEIAKGYDLIANEWTSGFGRCLEGAKIILDFMDARNCREEALAGGSVSICSGTGINEAVVYTFLKLLSKHRDTFIQTKFDAETADYVSSRAGEVLSGWEISGKKAGDFASILPRIQEFDSELLDKRINPGSTADIIIAALFIALLGGLR | failed
15 | MRTVLNILNFVLGGFATTLGWLLATLVSIVLIFTLPLTRSCWEITKLSLVPYGNEAIHVDELNPAGKNVLLNTGGTVLNIFWLIFFGWWLCLMHIATGIAQCISIIGIPVGIANFKIAAIALWPVGRRVVSVETAQAAREANARRRFE | failed
16 | MLFNKMKNYKGFTAVKELWLLNLFILSVFTLSFSVSAASNDVSINNNELIGISYNTIQSDQIVVVFSFTKNITSLPIVKTSMTPAFVEVTFDANTYGKDLTETLINHAGIKGINLDAKTGKVVALISLEKLAVFDVSLNNEKEFSITFNYGESAEIVETLSPAGDDFINSIESIDFRLNGDNEGQILVYLKDSMLAADVNDKLGKLNVEFHNTEIIDDLLYKLDVTDFGTLVTSIETFKEGRNARLVIDVESGFIFTQKQEENLFILTVKKKPEKAPTYLGDTDDFTGRSISLSFQDIPVRTVLQIIADYNEFNLIISDTVTGNITLRLDGVPWDQALSIILKVKGLDKRMQGNILMVAPSDELAAREAQSLQAKQQVEELATLYSEYLQINYAKAAEFSELIKNEDTSILSDRGSVSVDERTNTLLIRDTAKSIEDIKRMITILDVPVRQVVIEARMVTVKDNMNEELGIRWGVTNTDGEFATSGSIEGASSANGTRGVTTPGVGQVPTIGDGLNVNLPVANAAGTIAFQVARLANGTILDLELSALEKENKGEVIASPRITTANQKEAYIEQGVEIPYQEAASSGATATQFKKAVLSLTVTPHITPDDKIILDLVVTQDTISDITSGFAPAIDTQRIGTQVLVNNGETIVLGGIYQQAIISTVSKIPILGDIPYLGWLFRNSSQLNEKKELLIFVTPRIVTEHF | failed
17 | MIARPMVPTADQLATDDLSLSDRSRFWLAALEASGQGVAIADATHPDLILTYVNSAFKKLTGYNAAEALGKSCRFLQGSDRAQPGITTLRQAIRNGQACEVVLRNYRKDGSLFWNQLTIAPITDGQGKVSHYVALQRDITAFKEQEQALQRQGIYDEHSGLPKRQLFLDRLNQALAWSQFSGVPGALLLIDLGLPAHLDGSPSLSPDAEENLEIIANRLQAYVRPHETLAHLNHHQFGLLLLDPDVQLRAEERAHGIQTLIRDRLAGFEGGAHIGIVPLTPETPATVLLQAAEAAAMTARSQQQGHLSLEASAIVAAPEQYSRDRDWQQAIAAGELTLALQPQMGLRNRQLRGFEVQLRWQHPQQGTLLASQLMEHLEQSQHRETVGRWFLDQAGQLLSQWRNSAQFSGLFALSLLPQQWKSPSFIHDLRSLLETYQIPPEQLELDLPAQSLAESAAESWDWVYAVRDLGIGIGLADFGSRSIGLYDLRNLPLTTLKLERRFVRGLPDDANDRAIVRGVVAMSQALKVRIVARGVDTVDQAKFLARAECDAMQGLAYSAPLTIEEALQVARSPQAPAW | failed
18 | LRASEIMNRTLDLQIIMDDLLNLLLKEFKLDLAVIRLVDEKGVLRVRSYSGKGIAGIAGKDWEPEIETYIGEAFLSNRLQFVNDTQYMTKPLTRELMQKEGIKSFAHIPISRKGEPPFGILSVFSRTIVGLFNEPFLNLLESLAGQLAQAVKIVTEMEAKEREREEKERILLENA | not failed
19 | MAVNQDTLYVKGDRNVEVTKREVTLGDLVSMECSNRVILPHLKTMKVLKIPENGEKRYVISILKIIACIHEKYPGLEVQNLGETDLIVTYEMQKTPSK | not failed
